B1: PCSK9A2-DNA (ssDNA)
DNA: CGAATCAGATTGGACCAGCAACAATGATTCTTCTACCGTTTTTGCCCTCACCTTCTGCGCTGAGAGTCCAGATGTAGGTAG
modifications: no side-chains
B2: PCSK9A3-DNA (ssDNA)
DNA: CGAATCAGATTGGACCAGTCTCTACAACCTCTTTCATGTCTTTAGCACTACTTATCCTGATCAGAGTCCAGATGTAGGTAG
modifications: no side-chains
B3: PCSK9A4-DNA (ssDNA)
DNA: CGAATCAGATTGGACCAGCCCCAATGCTTTTCGTTTCTATCACGTCTTTAGCGGTACCTATTCGAGTCCAGATGTAGGTAG
modifications: no side-chains
B4: PCSK9A5-DNA (ssDNA)
DNA: CGAATCAGATTGGACCAGCCACGTTACTGATTCTTCTACCGTTTTTGCCCCCGGCACCTTCTGGAGTCCAGATGTAGGTAG
modifications: no side-chains
B5: PCSK9A7-DNA (ssDNA)
DNA: CGAATCAGATTGGACCAGTCTTCCCTATTCCTCTACCGTTTGTTCTCTTACTTTCACCTTCTGGAGTCCAGATGTAGGTAG
modifications: no side-chains
B6: PCSK9A6-DNA (ssDNA)
DNA: CGAATCAGATTGGACCAGTTTCAACCTCTTCTGCCTTCTCCACGGCTCCTTCTGCGTTGTTCCGAGTCCAGATGTAGGTAG
modifications: no side-chains
B7: PCSK9A1-DNA (ssDNA)
DNA: CGAATCAGATTGGACCAGCCACTATATTCTCTCTCCTACCGTTTGCCTTTGCATCACCTTCTGGAGTCCAGATGTAGGTAG
modifications: no side-chains

Target: PCSK9 (UniProt Q8NBP7 31-692)
Experiment: bead retention

PCSK9, sequence (Q8NBP7 31-692): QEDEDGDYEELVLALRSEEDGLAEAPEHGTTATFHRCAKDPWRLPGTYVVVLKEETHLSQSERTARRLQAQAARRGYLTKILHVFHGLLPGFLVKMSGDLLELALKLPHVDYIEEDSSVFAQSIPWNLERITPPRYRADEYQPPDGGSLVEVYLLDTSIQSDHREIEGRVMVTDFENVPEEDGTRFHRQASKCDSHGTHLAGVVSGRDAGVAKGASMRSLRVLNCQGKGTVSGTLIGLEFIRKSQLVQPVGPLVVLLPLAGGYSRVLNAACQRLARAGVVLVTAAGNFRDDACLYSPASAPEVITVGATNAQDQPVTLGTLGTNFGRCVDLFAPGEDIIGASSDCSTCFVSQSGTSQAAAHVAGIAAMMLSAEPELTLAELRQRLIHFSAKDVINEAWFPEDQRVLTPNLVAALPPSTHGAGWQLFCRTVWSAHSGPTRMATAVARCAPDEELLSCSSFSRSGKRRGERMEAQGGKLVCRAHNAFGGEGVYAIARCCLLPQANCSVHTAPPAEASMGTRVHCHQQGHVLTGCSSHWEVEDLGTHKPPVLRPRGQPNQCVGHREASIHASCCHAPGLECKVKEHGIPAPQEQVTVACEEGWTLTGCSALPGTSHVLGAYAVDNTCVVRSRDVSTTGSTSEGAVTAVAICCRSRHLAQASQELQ

Binder | binding result
B1 | no binding
B2 | no binding
B3 | no binding
B4 | no binding
B5 | no binding
B6 | no binding
B7 | no binding
